Data on four molecules can be found in article PMC6327041, “Histone H3 binding to the PHD1 domain of histone demethylase KDM5A enables active site remodeling” (Nature Communications, 2019).

What all share (settings): both partners purified
The target of assay [1] is T1, GST-PHD1 (S287-K347) of KDM5A (human, UniProt P29375 287-347).
T1 construct: PHD1 domain of histone demethylase KDM5A, human, residues S287-K347; Cloned into pET41a; the vector may add further tags (surmise); also called S287-K347 PHD1; GST-PHD1 (Ser287-Lys347); source: E. coli BL21(DE3), purified (Glutathione Sepharose 4B, Superdex 75 SEC); not shown: GST, N-terminal, kept
T1 sequence (looked up): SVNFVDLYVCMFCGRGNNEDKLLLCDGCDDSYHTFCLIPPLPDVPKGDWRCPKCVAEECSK
Kind of assay: fluorescence polarisation; competition-based FP: 2 µM GST-PHD1 with 10 nM C-terminal fluorescently labeled H3 peptide and different concentrations of unlabeled competitor peptide.

The target of assay [2] is T2, GST-PHD1 (V291-K347) of KDM5A (human, UniProt P29375 291-347).
T2 construct: PHD1 domain of histone demethylase KDM5A, human, residues V291-K347; Cloned into pET41a; the vector may add further tags (surmise); also called V291-K347 PHD1; PHD1_(KDM5A); source: E. coli BL21(DE3), purified (Glutathione Sepharose 4B, Superdex 75 SEC); not shown: GST, N-terminal, kept
T2 sequence (looked up): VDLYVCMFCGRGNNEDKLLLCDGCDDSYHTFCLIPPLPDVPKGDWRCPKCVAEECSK
Described as above.

The target in assay [3] is T3, GST-PHD1 (S287-K347) D292A of KDM5A (human, UniProt P29375 287-347, D292A).
T3 construct: PHD1 domain of histone demethylase KDM5A, human, residues S287-K347 with D292A; Cloned into pET41a; the vector may add further tags (surmise); also called S287-K347 PHD1 D292A; PHD1 D292A; source: E. coli BL21(DE3), purified (Glutathione Sepharose 4B, Superdex 75 SEC); not shown: GST, N-terminal, kept
T3 sequence (looked up): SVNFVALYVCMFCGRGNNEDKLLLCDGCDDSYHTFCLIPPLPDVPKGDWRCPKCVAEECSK
Described as above.

For assay [4], the target named is T1, GST-PHD1 (S287-K347) of KDM5A. Kind of assay: fluorescence polarisation; direct FP: 10 nM C-terminal fluorescently labeled H3 peptide with varying concentrations of GST-PHD1. On the technique in general: Fluorescence polarisation rises when a labelled molecule tumbles more slowly, as on binding a larger partner.
The target of assay [5] is T2, GST-PHD1 (V291-K347) of KDM5A. The assay is described as above.
For assay [6], the target named is T3, GST-PHD1 (S287-K347) D292A of KDM5A. Described as above.
Another assay addresses T4, KDM5A_(1-797) (human, UniProt P29375 1-797).
T4 construct: histone demethylase KDM5A, human, residues 1-797; Cloned into pFASTBAC HTA; the His tag was removed with TEV protease; also called WT KDM5A_(1-797); KMD5A; source: Sf21 (baculovirus), purified (cobalt resin, TEV cleavage, S200 SEC); not shown: His tag, N-terminal, cleaved
T4 sequence (looked up): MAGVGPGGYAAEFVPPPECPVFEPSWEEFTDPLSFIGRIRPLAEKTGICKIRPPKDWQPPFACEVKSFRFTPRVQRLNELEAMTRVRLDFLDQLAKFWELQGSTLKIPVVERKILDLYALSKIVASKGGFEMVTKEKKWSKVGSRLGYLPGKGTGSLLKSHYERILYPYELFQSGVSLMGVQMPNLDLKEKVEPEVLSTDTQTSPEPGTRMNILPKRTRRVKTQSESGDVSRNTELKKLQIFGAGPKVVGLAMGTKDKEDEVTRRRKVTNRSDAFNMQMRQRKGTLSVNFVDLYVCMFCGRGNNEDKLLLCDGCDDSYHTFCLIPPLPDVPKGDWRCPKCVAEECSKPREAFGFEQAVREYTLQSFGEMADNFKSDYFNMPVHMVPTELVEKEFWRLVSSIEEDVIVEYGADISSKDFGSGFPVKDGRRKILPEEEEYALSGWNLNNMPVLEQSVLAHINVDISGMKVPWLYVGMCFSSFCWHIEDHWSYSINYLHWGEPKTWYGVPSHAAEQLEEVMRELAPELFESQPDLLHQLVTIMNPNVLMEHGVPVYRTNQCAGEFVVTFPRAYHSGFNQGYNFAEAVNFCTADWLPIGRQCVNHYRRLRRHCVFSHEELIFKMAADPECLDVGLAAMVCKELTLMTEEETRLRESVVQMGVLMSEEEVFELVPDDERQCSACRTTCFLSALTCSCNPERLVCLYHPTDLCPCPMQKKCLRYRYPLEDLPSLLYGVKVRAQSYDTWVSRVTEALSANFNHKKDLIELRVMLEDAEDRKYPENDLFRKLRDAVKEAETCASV
Kind of assay: HDX-MS; KDM5A_(1-797) with 50 µM FeSO4 and 100 µM N-OG, with 100 µM H3 10mer effector peptide against apo; 40 mM HEPES, 50 mM KCl, pH 7.9, 4 °C.

Where no end group is shown, it is not given here. 5‑FAM = 5-carboxyfluorescein; Me3 = trimethyl-lysine

B1: H3K4me3 10mer peptide (peptide, UniProt P68431 2-11, looked up)
peptide: ARTK(Me3)QTARKS
notes: histone H3 N-terminal tail, 10mer Ala1-Ser10; also called tri-methylated H3K4 peptide
In general, Kd refers to the concentration at which binding is half-saturated. A higher Kd goes with a looser complex. Consider B1, for which the figures for the Kd in assay [1], in assay [2] and in assay [3] were 34 ± 5.5 µM, 35.5 ± 7.5 µM and 511 ± 281 µM, respectively.

B2: 5-carboxyfluorescein (5-FAM) conjugated H3 10mer peptide (peptide, UniProt P68431 2-11, looked up)
peptide: ARTKQTARKS-{5‑FAM}
notes: histone H3 N-terminal tail, 10mer Ala1-Ser10, unmodified; also called H3K4me0; C-terminal fluorescently labeled H3 peptide
In the case of B2, the Kd in assay [4] was 0.68 ± 0.04 µM; in assay [5], 1.89 ± 0.16 µM; in assay [6], 5.2 ± 0.26 µM.

B3: H3K4A 10mer peptide (peptide, UniProt P68431 2-11, looked up)
peptide: ARTAQTARKS
notes: histone H3 N-terminal tail, 10mer Ala1-Ser10 with K4A
In the case of B3, the results for the equilibrium dissociation constant (Kd) in assay [1], in assay [2] and in assay [3] were 1.58 ± 0.19 µM, 2.11 ± 0.27 µM and 22.2 ± 5.7 µM, respectively.

B4: unmodified H3 10mer effector peptide (H3 Ala1-Ser10) (peptide, UniProt P68431 2-11, looked up)
peptide: ARTKQTARKS
notes: histone H3 N-terminal tail, 10mer Ala1-Ser10, unmodified, unlabelled; also called H3 10mer peptide; PHD1-specific H3 10mer peptide
Consider B4, for which the binding result in the assay with KDM5A_(1-797) was “binds”.
